The results in this text go back to article PMC5793090 (Toxins, 2017).

First the molecules themselves.
T1: GST-CNF1 (full-length Cytotoxic Necrotizing Factor 1 of Escherichia coli as GST fusion) (Escherichia coli, UniProt Q47106 1-1014, DyLight488 Maleimide label in the flow cytometry experiments only)
T1 chain: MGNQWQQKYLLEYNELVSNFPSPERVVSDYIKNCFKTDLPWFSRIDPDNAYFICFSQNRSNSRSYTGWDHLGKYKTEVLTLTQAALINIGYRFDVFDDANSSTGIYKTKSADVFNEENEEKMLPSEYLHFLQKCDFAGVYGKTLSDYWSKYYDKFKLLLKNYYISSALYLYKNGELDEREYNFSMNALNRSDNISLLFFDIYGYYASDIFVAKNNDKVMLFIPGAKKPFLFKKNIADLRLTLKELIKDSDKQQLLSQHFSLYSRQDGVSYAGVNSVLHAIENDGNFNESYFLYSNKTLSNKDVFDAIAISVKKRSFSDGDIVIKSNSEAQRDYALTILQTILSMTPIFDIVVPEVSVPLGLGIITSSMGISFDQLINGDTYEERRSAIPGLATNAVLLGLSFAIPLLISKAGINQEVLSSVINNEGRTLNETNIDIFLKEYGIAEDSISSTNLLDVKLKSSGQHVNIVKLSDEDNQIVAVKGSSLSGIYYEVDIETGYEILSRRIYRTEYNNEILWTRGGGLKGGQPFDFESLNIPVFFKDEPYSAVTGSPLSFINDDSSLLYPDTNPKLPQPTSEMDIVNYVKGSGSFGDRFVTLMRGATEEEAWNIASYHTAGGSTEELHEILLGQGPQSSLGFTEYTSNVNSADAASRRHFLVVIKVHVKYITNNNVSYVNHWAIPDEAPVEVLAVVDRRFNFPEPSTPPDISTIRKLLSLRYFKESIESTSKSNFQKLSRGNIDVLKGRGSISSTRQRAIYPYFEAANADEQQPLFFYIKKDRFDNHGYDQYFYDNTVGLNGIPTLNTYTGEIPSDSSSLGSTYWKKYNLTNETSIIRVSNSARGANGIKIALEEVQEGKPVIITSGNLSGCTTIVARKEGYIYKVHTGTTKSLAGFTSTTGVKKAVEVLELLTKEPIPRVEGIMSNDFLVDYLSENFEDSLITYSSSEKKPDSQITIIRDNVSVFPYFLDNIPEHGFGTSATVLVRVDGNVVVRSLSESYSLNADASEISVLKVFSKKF

T2: GST-CNF1 (full-length Cytotoxic Necrotizing Factor 1 of Escherichia coli as GST fusion) (Escherichia coli, UniProt Q47106 1-1014, DyLight488 Maleimide label in the flow cytometry experiments only)
T2 construct: also called full-length CNF1; full toxin
T2 sequence: T1 chain

B1: Lu12-Fc (Fc fusion)
chain: EVRLSVPPLVEVMRGKSVILDCTPTGTHDHYMLEWFLTDRSGARPRLASAEMQGSELQVTMHDTRGRSPPYQLDSQGRLVLAEAQVGDERDYVCVVRAGAAGTAEATARLNVFAKPEATEVSPNKGTLSVMEDSAQEIATCNSRNGNPAPKITWYRNGQRLEVPVEMNPEGYMTSRTVREASGLLSLTSTLYLRLRKDDRDASFHCAAHYSLPEGRHGRLDSPTFH
B2: CNF1 (720–1014), GST-tag removed (domain or fragment)
chain: SIESTSKSNFQKLSRGNIDVLKGRGSISSTRQRAIYPYFEAANADEQQPLFFYIKKDRFDNHGYDQYFYDNTVGLNGIPTLNTYTGEIPSDSSSLGSTYWKKYNLTNETSIIRVSNSARGANGIKIALEEVQEGKPVIITSGNLSGCTTIVARKEGYIYKVHTGTTKSLAGFTSTTGVKKAVEVLELLTKEPIPRVEGIMSNDFLVDYLSENFEDSLITYSSSEKKPDSQITIIRDNVSVFPYFLDNIPEHGFGTSATVLVRVDGNVVVRSLSESYSLNADASEISVLKVFSKKF
notes: also called CNF1 catalytic unit
B3: Recombinant human extracellular rLu/BCAM with Fc-tag (Fc fusion)
chain: EVRLSVPPLVEVMRGKSVILDCTPTGTHDHYMLEWFLTDRSGARPRLASAEMQGSELQVTMHDTRGRSPPYQLDSQGRLVLAEAQVGDERDYVCVVRAGAAGTAEATARLNVFAKPEATEVSPNKGTLSVMEDSAQEIATCNSRNGNPAPKITWYRNGQRLEVPVEMNPEGYMTSRTVREASGLLSLTSTLYLRLRKDDRDASFHCAAHYSLPEGRHGRLDSPTFHLTLHYPTEHVQFWVGSPSTPAGWVREGDTVQLLCRGDGSPSPEYTLFRLQDEQEEVLNVNLEGNLTLEGVTRGQSGTYGCRVEDYDAADDVQLSKTLELRVAYLDPLELSEGKVLSLPLNSSAVVNCSVHGLPTPALRWTKDSTPLGDGPMLSLSSITFDSNGTYVCEASLPTVPVLSRTQNFTLLVQGSPELKTAEIEPKADGSWREGDEVTLICSARGHPDPKLSWSQLGGSPAEPIPGRQGWVSSSLTLKVTSALSRDGISCEASNPHGNKRHVFHFGTVSPQTSQA
notes: also called rLu/BCAM-Fc; recombinant Lu/BCAM; source: bought: Hölzel Diagnostika Handels GmbH

One data set concerns the target Lu12-Fc. Put plainly: SPR. (In SPR one partner is held on a chip, and binding of the other changes the refractive index at the surface.)
The target in data set [1] is T1, GST-CNF1 (full-length Cytotoxic …). Put plainly: SPR.
Data set [2] has as its target B3. Put plainly: SEC. To be noted: both partners purified.
The target in data set [3] is B3. Put plainly: small-angle X-ray scattering (SAXS). The settings on record: both partners purified.
The data set “SEC” concerns the molecule itself. Put plainly: SEC.
Data set [4] has as its target T2, GST-CNF1 (full-length Cytotoxic …). Put plainly: far-Western, overlay or dot blot; CNF proteins spotted on a nitrocellulose membrane, incubated with 5 µM rLu/BCAM in TBST for 30 min, then blocked with 5% milk; bound rLu/BCAM detected with an anti-Lu/BCAM antibody. To be noted: both partners purified.

Where “and” joins values, the source holds several entries; their conditions need not be identical. Equal entries are not always repeated.

What is called Kd is the concentration at which binding is half-saturated. Read a high Kd as a looser complex. With “GST-CNF1 (full-length Cytotoxic Necrotizing Factor 1 of Escherichia coli as GST fusion) (from UniProt Q47106 1-1014) (natural protein)”, the Kd with Lu12-Fc came out at 2 nM.
A word on the koff: it is a measure of how fast the partners let go of each other. The low end stands for a long-lived complex, the high end for a short-lived complex. In data set [1], B1 gave a koff of 3e-05 s⁻¹.
As usually defined, the stoichiometry N is the number of molecules, sites or subunits per partner or assembly. B2: the “stoichiometry N” value in data set [2] is 6 Lu/BCAM per CNF1; in data set [3], 1 CNF1 molecules per rLu/BCAM assembly and 2 CNF1 molecules per rLu/BCAM assembly.
With B3, in the data set “SEC”, the “stoichiometry N” value was 6. Also, the binding result in data set [4] is listed as “binds”.
